Laboratory results as given in US10428140B2, “Anti-EphA4 antibody” (EISAI R&D MANAGEMENT CO., LTD., priority 2015, dated 2019).
Changes are numbered by the printed parent chain.

T1: human EphB1 (Homo sapiens, UniProt P54762)
T1 construct: a protein of the extracellular region of each human Eph receptor fused with the SEAP protein and the His tag; made in house; host or cells: Expi293F cells (culture supernatant)
T1 sequence (P54762 18-540 limits assumed): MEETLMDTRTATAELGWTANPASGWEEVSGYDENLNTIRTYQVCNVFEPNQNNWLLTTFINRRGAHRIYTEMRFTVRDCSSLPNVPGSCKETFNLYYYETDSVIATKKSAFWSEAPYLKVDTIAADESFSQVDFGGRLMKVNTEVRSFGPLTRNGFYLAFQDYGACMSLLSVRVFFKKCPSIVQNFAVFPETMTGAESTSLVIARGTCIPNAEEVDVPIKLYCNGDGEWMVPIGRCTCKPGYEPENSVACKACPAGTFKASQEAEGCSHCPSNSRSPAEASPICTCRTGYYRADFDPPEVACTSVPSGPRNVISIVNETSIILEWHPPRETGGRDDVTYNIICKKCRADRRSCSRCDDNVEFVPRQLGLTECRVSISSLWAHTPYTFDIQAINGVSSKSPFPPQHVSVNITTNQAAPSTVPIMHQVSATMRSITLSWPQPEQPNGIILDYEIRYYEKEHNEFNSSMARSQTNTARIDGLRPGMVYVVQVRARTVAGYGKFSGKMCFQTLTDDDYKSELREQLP

T2: human EphA8 (Homo sapiens, UniProt P29322)
T2 construct: a protein of the extracellular region of each human Eph receptor fused with the SEAP protein and the His tag; made in house; host or cells: Expi293F cells (culture supernatant)
T2 sequence (P29322 28-542 limits assumed): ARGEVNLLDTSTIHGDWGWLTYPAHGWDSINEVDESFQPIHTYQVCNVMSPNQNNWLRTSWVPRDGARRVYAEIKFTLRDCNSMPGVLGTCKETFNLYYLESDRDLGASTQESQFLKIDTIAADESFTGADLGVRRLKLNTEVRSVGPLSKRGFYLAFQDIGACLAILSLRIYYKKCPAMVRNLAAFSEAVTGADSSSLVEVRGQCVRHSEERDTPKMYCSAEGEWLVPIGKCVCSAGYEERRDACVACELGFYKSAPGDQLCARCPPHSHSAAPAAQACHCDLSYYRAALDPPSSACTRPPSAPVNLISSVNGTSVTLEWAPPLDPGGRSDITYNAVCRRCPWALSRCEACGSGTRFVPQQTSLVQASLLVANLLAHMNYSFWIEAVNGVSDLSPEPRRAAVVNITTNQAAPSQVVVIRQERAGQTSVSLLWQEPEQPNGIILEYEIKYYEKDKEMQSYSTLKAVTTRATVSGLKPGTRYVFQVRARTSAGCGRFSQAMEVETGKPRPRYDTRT

T3: human EphB6 (Homo sapiens, UniProt O15197)
T3 construct: a protein of the extracellular region of each human Eph receptor fused with the SEAP protein and the His tag; made in house; host or cells: Expi293F cells
T3 sequence (O15197 32-594 limits assumed): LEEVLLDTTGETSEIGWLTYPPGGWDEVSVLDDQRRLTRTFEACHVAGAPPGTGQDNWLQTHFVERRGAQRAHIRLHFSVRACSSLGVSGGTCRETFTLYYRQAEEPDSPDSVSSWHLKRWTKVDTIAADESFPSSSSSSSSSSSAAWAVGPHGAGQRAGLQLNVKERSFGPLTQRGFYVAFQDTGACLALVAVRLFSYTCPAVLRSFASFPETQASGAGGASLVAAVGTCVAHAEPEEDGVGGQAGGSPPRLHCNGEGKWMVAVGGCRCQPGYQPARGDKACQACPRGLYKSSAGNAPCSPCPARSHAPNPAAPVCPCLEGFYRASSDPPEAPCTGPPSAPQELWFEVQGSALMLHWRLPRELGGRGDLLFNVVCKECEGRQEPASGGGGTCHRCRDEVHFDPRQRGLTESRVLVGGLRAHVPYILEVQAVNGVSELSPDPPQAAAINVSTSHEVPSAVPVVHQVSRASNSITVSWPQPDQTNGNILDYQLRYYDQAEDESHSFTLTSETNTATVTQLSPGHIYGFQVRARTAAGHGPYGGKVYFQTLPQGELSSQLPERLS

B1: 93 (antibody, V domains shown)
VL: EIVMTQSPATLSVSPGERATLSCRASENIYRNLAWYQQKPGQSPRLLIYAATNLADGIPARFSGSGSGTEYTLTISSLQSEDFAVYYCQHFWGTPWTFGQGTKVEIK
VH: QVQLVQSGSELKKPGASVKVSCKASGYTFTDYSMHWVRQAPGQGLEWMGWINTETGEPTYAQGFTGRFVFSLDTSVSTAYLQISSLKAEDTAVYYCARIPLYYYGSRYWYFDVWGQGTTVTVSS
modifications: constant regions without entry; synthetic humanized antibody light chain variable region sequence; synthetic humanized antibody heavy chain variable region sequence
B2: 94 (antibody, V domains shown)
VL: B1 VL
VH: B1 VH with E46K
modifications: constant regions without entry; synthetic humanized antibody light chain variable region sequence; synthetic humanized antibody heavy chain variable region sequence
B3: 95 (antibody, V domains shown)
VL: B1 VL
VH: B1 VH with Q62D, G63D, T65K
modifications: constant regions without entry; synthetic humanized antibody light chain variable region sequence; synthetic humanized antibody heavy chain variable region sequence
B4: 139 (antibody)
VH: B1 VH
VL: DIQMTQSPSSLSASVGDRVTITCRASENIYRNLAWYQQKPGKAPKLLVYAATNLADGVPSRFSGSGSGTDYTLTISSLQPEDFATYYCQHFWGTPWTFGQGTKVEIK
chain: ASTKGPSVFPLAPSSRSTSESTAALGCLVKDYFPEPVTVSWNSGALTSGVHTFPAVLQSSGLYSLSSVVTVPSSNFGTQTYTCNVDHKPSNTKVDKTVERKSCVECPPCPAPPAAAPSVFLFPPKPKDTLMISRTPEVTCVVVDVSHEDPEVQFNWYVDGVEVHNAKTKPREEQFNSTFRVVSVLTVVHQDWLNGKEYKCKVSNKGLPAPIEKTISKTKGQPREPQVYTLPPSREEMTKNQVSLTCLVKGFYPSDIAVEWESNGQPENNYKTTPPMLDSDGSFFLYSKLTVDKSRWQQGNVFSCSVMHEALHNHYTQKSLSLSPG
modifications: synthetic humanized antibody heavy chain variable region sequence; synthetic humanized antibody light chain variable region sequence; synthetic antibody constant region sequence
B5: 138 (antibody, V domains shown)
VH: B1 VH with V2I, E46K
VL: B4 VL
modifications: synthetic humanized antibody heavy chain variable region sequence; synthetic humanized antibody light chain variable region sequence
B6: 71 (antibody, V domains shown)
VH: B1 VH with V2I, E46K
VL: B1 VL
modifications: synthetic humanized antibody heavy chain variable region sequence; synthetic humanized antibody light chain variable region sequence
B7: 73 (antibody, V domains shown)
VH: B1 VH with V2I, E46K, Q62D, G63D, T65K
VL: B1 VL
modifications: synthetic humanized antibody heavy chain variable region sequence; synthetic humanized antibody light chain variable region sequence
B8: 140 (antibody, V domains shown)
VH: B1 VH with E46K
VL: B4 VL
modifications: synthetic humanized antibody heavy chain variable region sequence; synthetic humanized antibody light chain variable region sequence
B9: 96 (antibody, V domains shown)
VL: B1 VL
VH: B1 VH with E46K, Q62D, G63D, T65K
modifications: constant regions without entry; synthetic humanized antibody light chain variable region sequence; synthetic humanized antibody heavy chain variable region sequence

These molecules were tested against T4, human EphA5 (Homo sapiens, UniProt P54756) (assay: Selectivity ELISA of humanized antibodies for human Eph receptor). Conditions: coated protein 1 nM.
T4 construct: a protein of the extracellular region of each human Eph receptor fused with the SEAP protein and the His tag; made in house; host or cells: Expi293F cells (culture supernatant)
T4 sequence (P54756 25-573 limits assumed): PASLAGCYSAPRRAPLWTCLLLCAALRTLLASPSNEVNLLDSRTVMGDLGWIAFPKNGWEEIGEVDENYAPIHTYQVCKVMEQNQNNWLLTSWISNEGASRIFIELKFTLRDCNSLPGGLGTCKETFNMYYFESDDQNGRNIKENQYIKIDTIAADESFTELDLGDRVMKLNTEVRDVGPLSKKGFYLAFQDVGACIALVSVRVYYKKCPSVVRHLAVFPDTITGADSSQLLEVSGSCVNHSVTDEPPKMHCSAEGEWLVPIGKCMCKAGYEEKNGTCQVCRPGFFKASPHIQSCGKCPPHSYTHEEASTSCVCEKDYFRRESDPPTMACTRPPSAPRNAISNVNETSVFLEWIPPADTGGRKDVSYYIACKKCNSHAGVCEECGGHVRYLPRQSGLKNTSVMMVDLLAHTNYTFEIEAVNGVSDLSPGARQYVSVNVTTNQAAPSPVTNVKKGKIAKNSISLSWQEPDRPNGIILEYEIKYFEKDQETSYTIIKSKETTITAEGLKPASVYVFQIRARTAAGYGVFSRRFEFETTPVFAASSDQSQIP
Type: binding
How it was run: (§1)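 Read-out is A450 after TMB development stopped with 1N H2SO4. Plates bore anti-His-captured human Eph extracellular region-SEAP-His proteins at 1 nM final, made in Expi293F cells. Humanized antibody binding ran 1 h at room temperature before HRP-labeled anti-IgG detection.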

hEphA5-SEAP-: absorbance at 450 nm, percentage with respect to hEphA4-SEAP-His as 100% | Molecule
4.9% | B1
6.5% | B2
4.6% | B3
5.7% | B4
5.1% | B5
5.6% | B6
6.0% | B7
5.4% | B8
6.0% | B9

These molecules were tested against T1, human EphB1 in the same assay as above. Conditions: coated protein 1 nM.
Type: binding
How it was run: as §1

hEphB1-SEAP-: absorbance at 450 nm, percentage with respect to hEphA4-SEAP-His as 100% | Molecule
5.0% | B1
6.7% | B2
4.6% | B3
5.5% | B4
5.1% | B5
5.4% | B6
5.7% | B7
5.3% | B8
5.6% | B9

These molecules were tested against T2, human EphA8 in the same assay as above. Conditions: coated protein 1 nM.
Type: binding
How it was run: as §1

hEphA8-SEAP-: absorbance at 450 nm, percentage with respect to hEphA4-SEAP-His as 100% | Molecule
5.0% | B1
7.0% | B2
4.4% | B3
6.0% | B4
5.4% | B5
5.3% | B6
5.8% | B7
5.4% | B8
5.4% | B9

These molecules were tested against T3, human EphB6 in the same assay as above. Conditions: coated protein 1 nM.
Type: binding
How it was run: as §1

hEphB6-SEAP-: absorbance at 450 nm, percentage with respect to hEphA4-SEAP-His as 100% | Molecule
4.9% | B1
6.4% | B2
4.7% | B3
5.9% | B4
5.0% | B5
5.3% | B6
5.6% | B7
5.2% | B8
5.5% | B9
